The text below walks through data of PMC5552852, “Structural basis for Ccd1 auto-inhibition in the Wnt pathway through homomerization of the DIX domain” (Scientific Reports, 2017).

Residue numbers refer to the chain shown, from its start. Numbers in names are those of the source.

The target in series [1] is mCcd1 DIX domain D399A (mouse).
Series [2] deals with mCcd1 DIX domain R400A (mouse).
For series [3], the target named is mCcd1 DIX domain L402A (mouse).
A further series concerns the target T1, MBP-fused zCcd1 DIX (zebrafish, UniProt Q804T6 356-438).
T1 construct: DIX domain of zebrafish Ccd1, cDNA Gene ID 360137; The uncleaved precursor of m2; also called MBP-fused zCcd1 DIX domain; source: E. coli (plasmid pOPINM), purified (amylose resin)
T1 sequence (looked up): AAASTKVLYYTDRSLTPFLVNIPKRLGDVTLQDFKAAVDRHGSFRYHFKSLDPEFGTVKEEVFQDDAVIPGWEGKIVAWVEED
Nature of the series: pull-down; MBP-fused mCcd1, zCcd1 or Dvl1 DIX (0.8 mM) held on amylose resin, Axin DIX or Dvl1 DIX free; pull-down buffer, 277 K (Figures 5f, 5g). The conditions noted are these: both partners purified.

The next series has as its target T2, mCcd1 DIX domain L402A.
T2 chain: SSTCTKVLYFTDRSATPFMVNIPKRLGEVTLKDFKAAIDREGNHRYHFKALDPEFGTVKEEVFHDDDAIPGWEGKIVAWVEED
Nature of the series: dynamic light scattering. The note with it: chain shown with the change;; parent: est. 4.4; read off a plot.

For the next series, the target named is T3, mCcd1 DIX domain F397A.
T3 chain: T2 chain with F10A, A15L
Description: dynamic light scattering. The conditions noted are these: chain shown with the change;; parent: est. 4.4; read off a plot.

For a further series, the target named is T4, mCcd1 DIX domain W466A.
T4 chain: T2 chain with A15L, W79A
Description: dynamic light scattering. The note with it: chain shown with the change;; parent: est. 4.4; read off a plot.

Series [4] deals with the molecule itself. Nature of the series: SEC; gel filtration chromatography of the DIX domains without carrier (Figures 1b and 4e).

The molecule “mCcd1 DIX domain D399A (domain or fragment)” yielded a TCF-dependent transcription (TOPflash luciferase reporter, HeLa cells transfected with FLAG-tagged mCcd1 BalphaL D399A), compared to the wild type in series [1] of 1.3 fold. Consider “mCcd1 DIX domain R400A (domain or fragment)”, for which the TCF-dependent transcription (TOPflash luciferase reporter, HeLa cells transfected with FLAG-tagged mCcd1 BalphaL R400A), compared to the wild type in series [2] came out at 1.4 fold. Molecule “mCcd1 DIX domain L402A (domain or fragment)” registered a TCF-dependent transcription (TOPflash luciferase reporter, HeLa cells transfected with FLAG-tagged mCcd1 BalphaL L402A), compared to the wild type in series [3] of 1.5 fold.

B1: Axin DIX domain (domain or fragment, UniProt O70239 745-827, looked up)
chain: CDSIVVAYYFCGEPIPYRTLVRGRAVTLGQFKELLTKKGSYRYYFKKVSDEFDCGVVFEEVREDEAILPVFEEKIIGKVEKVD
notes: DIX domain of Axin; source: E. coli, expressed as a fusion construct with GST or MBP, purified
For B1, the “fold binding relative to MBP-fused mCcd1 DIX” value in the series with MBP-fused zCcd1 DIX was 1.53 fold.

B2: mouse Coiled-coil-DIX1 (mCcd1) DIX domain L402A (protein)
chain: T2 chain
Turning to B2, the other: DLS peak size (diameter) of homopolymer with mCcd1 DIX domain L402A turned out to be 7.3 nm.

B3: mouse Coiled-coil-DIX1 (mCcd1) DIX domain F397A (protein)
chain: T2 chain with F10A, A15L
In the case of B3, the other: DLS peak size (diameter) of homopolymer with mCcd1 DIX domain F397A was found to be 5.5 nm.

B4: mouse Coiled-coil-DIX1 (mCcd1) DIX domain W466A (protein)
chain: T2 chain with A15L, W79A
As for B4, the other: DLS peak size (diameter) of homopolymer in the series with mCcd1 DIX domain W466A is 8.2 nm.

B5: zebrafish Coiled-coil-DIX1 (zCcd1) DIX domain (domain or fragment, UniProt Q804T6 356-438, looked up)
chain: T1 sequence (looked up)
notes: DIX domain of zebrafish Coiled-coil-DIX1 (zCcd1), residues 356-438, cDNA Gene ID 360137; also called zCcd DIX domain; Zebrafish CCD1; source: E. coli (plasmid pOPINM), purified (amylose resin, HRV3C cleavage, HiTrap Q)
What is called stoichiometry N is the number of molecules, sites or subunits per partner or assembly. As for B5, the “stoichiometry N” value in series [4] was 2.
